Results on one substance are retold here after PMC8139713.

pKd: −log10 of the molar value.

The assay deals with ACE2-Fc (soluble human ACE2 fused to human IgG Fc) (human) (UniProt Q9BYF1). Nature of the assay: BLI.
Sequence of ACE2-Fc (soluble human ACE2 fused to human IgG Fc) (human) (Q9BYF1 18-738): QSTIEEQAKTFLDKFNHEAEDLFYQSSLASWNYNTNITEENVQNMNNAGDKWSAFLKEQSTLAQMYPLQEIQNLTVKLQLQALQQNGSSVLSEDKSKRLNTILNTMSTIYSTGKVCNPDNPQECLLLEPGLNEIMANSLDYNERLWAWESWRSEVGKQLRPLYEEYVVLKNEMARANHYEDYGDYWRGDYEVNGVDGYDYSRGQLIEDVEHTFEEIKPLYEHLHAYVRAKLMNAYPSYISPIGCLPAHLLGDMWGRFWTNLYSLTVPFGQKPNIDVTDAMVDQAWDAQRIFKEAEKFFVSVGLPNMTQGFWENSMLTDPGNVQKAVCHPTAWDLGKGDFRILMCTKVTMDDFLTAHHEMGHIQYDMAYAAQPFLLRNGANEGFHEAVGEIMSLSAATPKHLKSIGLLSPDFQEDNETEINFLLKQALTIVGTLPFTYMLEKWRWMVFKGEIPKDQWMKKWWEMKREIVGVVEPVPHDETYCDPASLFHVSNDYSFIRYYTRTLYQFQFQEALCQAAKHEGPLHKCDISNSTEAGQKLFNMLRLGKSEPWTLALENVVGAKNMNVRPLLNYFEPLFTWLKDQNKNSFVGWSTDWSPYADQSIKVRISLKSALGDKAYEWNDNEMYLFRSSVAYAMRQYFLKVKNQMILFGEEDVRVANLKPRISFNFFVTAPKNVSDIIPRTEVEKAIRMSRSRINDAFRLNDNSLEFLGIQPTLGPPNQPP

What is called pKd is the negative decadic logarithm of the Kd, by convention in mol/L. “wild-type SARS-CoV-1 S-Trimer (from UniProt P59594 14-1193) (domain or fragment)” had a pKd of 8.92.
